Experimental data taken from US20110008369A1.

Biological target: human PD-1 (Programmed Cell Death 1), expressed on cells (human) (UniProt Q15116)
Assay: cell binding; 0.2 ug/ml IgG on activated human CD4+ cells, 37 C

human PD-1 (Programmed Cell Death 1), expressed on cells (human), sequence (Q15116 25-288 limits assumed): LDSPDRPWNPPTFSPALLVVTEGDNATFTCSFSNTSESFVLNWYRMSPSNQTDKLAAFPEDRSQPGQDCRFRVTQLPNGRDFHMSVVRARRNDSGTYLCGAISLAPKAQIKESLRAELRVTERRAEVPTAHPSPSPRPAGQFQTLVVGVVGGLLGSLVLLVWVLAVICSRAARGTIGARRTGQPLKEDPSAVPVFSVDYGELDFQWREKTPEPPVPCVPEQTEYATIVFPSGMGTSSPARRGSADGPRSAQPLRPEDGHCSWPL

B1: mAb 6D10 (antibody, part only; not given: light chain variable domain, V domains shown, part only)
VH: EVKLVESGGGLVQPGGSRKLSCAASGFTFSSFGMHWVRQAPEKGLEWVAYVSSASSVIHYADTVKGRFTISRDNPKNTLFLQMTSLRSEDTAMYYCARSGYYGTWFPYWGQGTLVTVS
- MFI: 133 MFI
